Laboratory results taken from article PMC4633989.

Biological target: Nrx-1 C-term peptide (last 10 C-terminal residues of Drosophila Nrx-1) (Drosophila) (UniProt Q3KN41)
Experiment: ITC; Nrx-1 C-term peptide with the PDZ domains of Spn or Syd-1; details in the Supplementary Methods

Chain of UniProt Q3KN41 (Q3KN41 whole entry, looked up, the tested form may be a part): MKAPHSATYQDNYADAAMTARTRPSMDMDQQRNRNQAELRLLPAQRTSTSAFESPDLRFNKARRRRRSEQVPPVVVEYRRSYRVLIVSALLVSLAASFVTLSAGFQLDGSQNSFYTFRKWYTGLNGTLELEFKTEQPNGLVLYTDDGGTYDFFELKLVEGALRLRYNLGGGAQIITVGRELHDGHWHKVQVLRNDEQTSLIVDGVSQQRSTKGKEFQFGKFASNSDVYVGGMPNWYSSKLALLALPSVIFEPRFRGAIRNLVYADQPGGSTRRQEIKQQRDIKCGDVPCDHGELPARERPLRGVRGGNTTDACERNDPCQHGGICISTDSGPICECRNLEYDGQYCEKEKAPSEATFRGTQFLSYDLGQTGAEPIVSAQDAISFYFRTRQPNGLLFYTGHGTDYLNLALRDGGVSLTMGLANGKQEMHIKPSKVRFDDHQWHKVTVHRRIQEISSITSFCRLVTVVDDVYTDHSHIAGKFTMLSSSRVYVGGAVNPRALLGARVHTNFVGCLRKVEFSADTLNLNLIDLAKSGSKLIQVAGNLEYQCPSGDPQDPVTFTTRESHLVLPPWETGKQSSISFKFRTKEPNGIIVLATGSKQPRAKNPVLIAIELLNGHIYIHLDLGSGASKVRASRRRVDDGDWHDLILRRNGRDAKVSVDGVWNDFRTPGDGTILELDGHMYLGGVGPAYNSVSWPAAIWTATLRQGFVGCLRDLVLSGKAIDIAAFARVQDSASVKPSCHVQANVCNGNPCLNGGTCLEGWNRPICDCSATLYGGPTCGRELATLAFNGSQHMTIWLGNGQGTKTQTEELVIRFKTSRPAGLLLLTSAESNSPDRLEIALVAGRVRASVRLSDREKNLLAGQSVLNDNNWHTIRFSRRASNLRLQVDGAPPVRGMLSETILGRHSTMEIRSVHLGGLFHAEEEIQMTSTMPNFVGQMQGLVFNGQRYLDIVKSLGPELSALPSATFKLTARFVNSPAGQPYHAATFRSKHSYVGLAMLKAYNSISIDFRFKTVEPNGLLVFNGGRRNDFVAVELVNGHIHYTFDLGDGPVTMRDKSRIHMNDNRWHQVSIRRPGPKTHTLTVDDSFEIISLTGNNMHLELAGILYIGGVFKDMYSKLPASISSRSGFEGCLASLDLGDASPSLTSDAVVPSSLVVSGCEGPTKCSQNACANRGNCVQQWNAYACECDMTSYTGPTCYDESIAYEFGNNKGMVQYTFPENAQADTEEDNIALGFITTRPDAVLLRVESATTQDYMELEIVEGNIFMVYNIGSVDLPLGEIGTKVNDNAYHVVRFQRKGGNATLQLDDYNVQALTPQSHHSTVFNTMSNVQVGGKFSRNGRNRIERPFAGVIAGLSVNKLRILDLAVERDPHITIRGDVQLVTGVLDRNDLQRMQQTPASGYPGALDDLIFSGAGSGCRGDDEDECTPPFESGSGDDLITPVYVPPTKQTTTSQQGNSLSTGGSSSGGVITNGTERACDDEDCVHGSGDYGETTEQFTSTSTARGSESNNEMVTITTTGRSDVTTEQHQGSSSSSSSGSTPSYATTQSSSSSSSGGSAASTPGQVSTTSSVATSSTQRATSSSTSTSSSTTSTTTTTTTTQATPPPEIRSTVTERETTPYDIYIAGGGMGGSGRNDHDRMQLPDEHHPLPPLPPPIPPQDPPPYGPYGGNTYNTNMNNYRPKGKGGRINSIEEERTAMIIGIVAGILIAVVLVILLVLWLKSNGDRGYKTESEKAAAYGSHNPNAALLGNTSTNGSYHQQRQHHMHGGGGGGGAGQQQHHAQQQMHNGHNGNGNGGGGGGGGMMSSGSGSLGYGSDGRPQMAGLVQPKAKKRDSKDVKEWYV

Kd [µM] | Substance
50 | Drosophila Spn-PDZ domain (dmSpn residues 1,258-1,347) (domain or fragment)
5 | Drosophila Syd-1-PDZ domain (dmSyd-1 residues 155-242) (domain or fragment)
